Here are results for 2 molecules from paper PMC10197132.

One may read the stoichiometry N as a count of units in the complex or per binding partner.

In data set [1] the target is G3-SEAP (human-secreted embryonic alkaline phosphatase with an N-terminal Gly3 sequence) (human). Nature of the data set: SEC-MALS.
The target in the next data set is G3-SEAP (human, UniProt P05187). Kind of data set: fluorescence polarization. For orientation: Polarisation of emitted light reports the rotation of a fluorescent probe.

Take “G3-SEAP (human-secreted embryonic alkaline phosphatase with an N-terminal Gly3 sequence) (enzyme)”: in data set [1], the stoichiometry N was 2.

B1: FAM-23DR DNA-RNA hybrid (DNA:RNA)
DNA: CGGTGTGGTCGCTGTAATCAGAG
RNA: CUCUGAUUACAGCGACCACACCG
As for B1, the binding result in the data set with G3-SEAP is “no binding”.
